{"source": "patent US20190177431A1", "about": "(FUDAN UNIVERSITY, published 2019)", "binders": {"B1": {"name": "TF-mAb-H30 (antibody, V domains shown)", "VH": "EVQLVQSGAEVKKPGESLKISCKGSGYSFTSYWMNWVRQMPGKGLEWMGMIYPADSETRLNQKFKDKATLSVDKSISTAYLQWSSLKASDTAMYYCAREDYGSSDYWGQGTTVTVSS", "VL": "EIVLTQSPATLSLSPGERATLSCSASSSVSYMNWYQQKPGQAPRIWIYGISNLASGIPARFSGSGSGTDFTLTISSLEPEDFAVYYCQQKSSFPWTFGGGTKVEIK", "notes": "Humanized"}, "B2": {"name": "TF-mAb-H38 (antibody, V domains shown)", "VH": "QVQLVQSGSELKKPGASVKVSCKASGYSFISYWMNWVRQAPGQGLEWIGMIYPADSETRLNQKFKDRAVLSVDKSVSTAYLQICSLKAEDTAVYYCAREDYGSSDYWGQGTTVTVSS", "VL": "B1 VL with A42S, I57V", "notes": "Humanized"}, "B3": {"name": "TF-mAb-H40 (antibody, V domains shown)", "VH": "B1 VH", "VL": "DIQLTQSPSSLSASVGDRVTITCSASSSVSYMNWYQQKPGKSPKIWIYGISNLASGVPSRFSGSGSGTDFTLTISSLQPEDFATYYCQQKSSFPWTFGGGTKVEIK", "notes": "Humanized"}, "B4": {"name": "TF-mAb-H45 (antibody, V domains shown)", "VH": "B1 VH", "VL": "EIVLTQSPDFQSVTPKEKVTITCSASSSVSYMNWYQQKPDQSPKIWIYGISNLASGVPSRFSGSGSGTDFTLTINSLEAEDAATYYCQQKSSFPWTFGGGTKVEIK", "notes": "Humanized"}, "B5": {"name": "TF-mAb-H32 (antibody, V domains shown)", "VH": "QVQLVQSGAEVKKPGASVKVSCKASGYSFISYWMNWVRQAPGQGLEWIGMIYPADSETRLNQKFKDRATLTVDKSTSTAYMELSSLRSEDTAVYYCAREDYGSSDYWGQGTTVTVSS", "VL": "B1 VL", "notes": "Humanized"}, "B6": {"name": "TF-mAb-H44 (antibody, V domains shown)", "VH": "B1 VH with K67Q", "VL": "B4 VL", "notes": "Humanized; also called humanized antibody TF-mAb-H44"}, "B7": {"name": "TF-mAb-H33 (antibody, V domains shown)", "VH": "B2 VH", "VL": "B1 VL", "notes": "Humanized"}, "B8": {"name": "TF-mAb-H39 (antibody, V domains shown)", "VH": "B1 VH with K67Q", "VL": "B3 VL", "notes": "Humanized; also called humanized antibody TF-mAb-H39"}, "B9": {"name": "TF-mAb-H35 (antibody, V domains shown)", "VH": "B1 VH", "VL": "B1 VL with A42S, I57V", "notes": "Humanized"}, "B10": {"name": "TF-mAb-H41 (antibody, V domains shown)", "VH": "B1 VH with R38K", "VL": "B3 VL", "notes": "Humanized"}, "B11": {"name": "TF-mAb-H29 (antibody, V domains shown)", "VH": "B1 VH with K67Q", "VL": "B1 VL", "notes": "Humanized"}, "B12": {"name": "TF-mAb-H46 (antibody, V domains shown)", "VH": "B1 VH with R38K", "VL": "B4 VL", "notes": "Humanized"}, "B13": {"name": "TF-mAb-H31 (antibody, V domains shown)", "VH": "B1 VH with R38K", "VL": "B1 VL", "notes": "Humanized"}, "B14": {"name": "TF-mAb-H37 (antibody, V domains shown)", "VH": "B5 VH", "VL": "B1 VL with A42S, I57V", "notes": "Humanized"}, "B15": {"name": "TF-mAb-H34 (antibody, V domains shown)", "VH": "B1 VH with K67Q", "VL": "B1 VL with A42S, I57V", "notes": "Humanized"}, "B16": {"name": "TF-mAb-H36 (antibody, V domains shown)", "VH": "B1 VH with R38K", "VL": "B1 VL with A42S, I57V", "notes": "Humanized"}, "B17": {"name": "TF-mAb-H42 (antibody, V domains shown)", "VH": "B5 VH", "VL": "B3 VL", "notes": "Humanized"}, "B18": {"name": "TF-mAb-H47 (antibody, V domains shown)", "VH": "B5 VH", "VL": "B4 VL", "notes": "Humanized"}, "B19": {"name": "TF-mAb-H48 (antibody, V domains shown)", "VH": "B2 VH", "VL": "B4 VL", "notes": "Humanized"}, "B20": {"name": "TF-mAb-H43 (antibody, V domains shown)", "VH": "B2 VH", "VL": "B3 VL", "notes": "Humanized"}}, "note": "Where a chain is given by its changes, count along the chain named.", "data": [{"biological_target": "T1, extracellular domain of human TF protein (human, UniProt P13726 34-251)", "T1 construct": "range 34-251; Limits 34-251 are stated for the immunogen; also called the extracellular domain protein of TF; TF antigen", "experiment": "ELISA, coated TF extracellular domain", "method": "The antigen (the extracellular domain protein of TF) was diluted to 0.5 μg/mL with a coating solution, and was used to coat an ELISA plate overnight, at 100 μL/well and 4° C. The excessive antigen was removed by washing. The plate was blocked with 2% BSA at room temperature for 2 h, and then each of the 3-fold serial diluted monoclonal antibodies was added at 100 μL/well, and was incubated for 2 h at room temperature. The unbound antibodies were removed by washing, and an appropriate concentration of horseradish peroxidase-labeled anti-mouse secondary antibody was added at 100 μL/well, and incubated for 1 h at room temperature. The unbound secondary antibody was removed by washing, TMB chromogenic solution was added, and the color was developed to an appropriate color depth. 2M H₂SO₄ was added at 50 μL/well, to stop the chromogenic reaction, the absorbance at 450 nm was then determined, and the data was analyzed.\nFirstly, the 20 humanized antibodies were determined for their affinity for the extracellular domain protein of TF by ELISA binding assay (The experimental method refers to Step \\textcircled{4} of Example 1).", "units": {"EC50": "nM"}, "values": [{"binder": "B1", "EC50": 0.0147}, {"binder": "B2", "EC50": 0.0178}, {"binder": "B3", "EC50": 0.0131}, {"binder": "B4", "EC50": 0.0138}, {"binder": "B5", "EC50": 0.0168}, {"binder": "B6", "EC50": 0.012}, {"binder": "B7", "EC50": 0.0189}, {"binder": "B8", "EC50": 0.0125}, {"binder": "B9", "EC50": 0.0105}, {"binder": "B10", "EC50": 0.0134}, {"binder": "B11", "EC50": 0.0178}, {"binder": "B12", "EC50": 0.0119}, {"binder": "B13", "EC50": 0.0145}, {"binder": "B14", "EC50": 0.0173}, {"binder": "B15", "EC50": 0.0154}, {"binder": "B16", "EC50": 0.0234}, {"binder": "B17", "EC50": 0.0128}, {"binder": "B18", "EC50": 0.013}, {"binder": "B19", "EC50": 0.0153}, {"binder": "B20", "EC50": 0.0116}]}, {"biological_target": "T2, human TF on the cell surface of tumor cells (human, UniProt P13726 33-295)", "T2 construct": "whole, on cells; Endogenous TF on TF-positive human tumor cell lines; also called cell surface TF", "experiment": "flow cytometry on MDA-MB-231 cells, antibody at 1 µg/mL", "method": "(§1) The cells were washed with PBS twice to remove the unbound primary antibody, and the target cells were incubated with 200 μL PE-labeled secondary antibody (2 μg/mL) at 4° C. for 30 min. The cells were washed with PBS twice to remove the unbound secondary antibody, and finally the cells were re-suspended in 400 μL PBS.", "values": [{"binder": "B1", "MFI": 2930}, {"binder": "B2", "MFI": 2870}, {"binder": "B3", "MFI": 3180}, {"binder": "B4", "MFI": 3100}, {"binder": "B5", "MFI": 2400}, {"binder": "B6", "MFI": 3200}, {"binder": "B7", "MFI": 2420}, {"binder": "B8", "MFI": 3180}, {"binder": "B9", "MFI": 2930}, {"binder": "B10", "MFI": 3000}, {"binder": "B11", "MFI": 2960}, {"binder": "B12", "MFI": 3120}, {"binder": "B13", "MFI": 3080}, {"binder": "B14", "MFI": 2460}, {"binder": "B15", "MFI": 2460}, {"binder": "B16", "MFI": 3040}, {"binder": "B17", "MFI": 2970}, {"binder": "B18", "MFI": 3000}, {"binder": "B19", "MFI": 2610}, {"binder": "B20", "MFI": 2820}]}, {"biological_target": "T2, human TF on the cell surface of tumor …", "experiment": "flow cytometry on MDA-MB-231 cells, antibody at 10 µg/mL", "parameters": "reference not given here", "method": "as §1", "values": [{"binder": "B1", "MFI": 3240}, {"binder": "B2", "MFI": 3150}, {"binder": "B3", "MFI": 3310}, {"binder": "B4", "MFI": 3480}, {"binder": "B5", "MFI": 3010}, {"binder": "B6", "MFI": 3430}, {"binder": "B7", "MFI": 2840}, {"binder": "B8", "MFI": 3380}, {"binder": "B9", "MFI": 3020}, {"binder": "B10", "MFI": 3610}, {"binder": "B11", "MFI": 3580}, {"binder": "B12", "MFI": 3410}, {"binder": "B13", "MFI": 3470}, {"binder": "B14", "MFI": 2990}, {"binder": "B15", "MFI": 3270}, {"binder": "B16", "MFI": 3090}, {"binder": "B17", "MFI": 3350}, {"binder": "B18", "MFI": 3150}, {"binder": "B19", "MFI": 2900}, {"binder": "B20", "MFI": 3300}]}]}
